Data on 1 molecule can be found in article PMC6155056 (Science Advances, 2018).

Common to all, as to assay: cryo-EM structure
For test [1], the target named is T1, CVA10 mature virion (strain CVA10-FJ-01) (Coxsackievirus A10, strain CVA10-FJ-01 …, strain).
T1 chain 1: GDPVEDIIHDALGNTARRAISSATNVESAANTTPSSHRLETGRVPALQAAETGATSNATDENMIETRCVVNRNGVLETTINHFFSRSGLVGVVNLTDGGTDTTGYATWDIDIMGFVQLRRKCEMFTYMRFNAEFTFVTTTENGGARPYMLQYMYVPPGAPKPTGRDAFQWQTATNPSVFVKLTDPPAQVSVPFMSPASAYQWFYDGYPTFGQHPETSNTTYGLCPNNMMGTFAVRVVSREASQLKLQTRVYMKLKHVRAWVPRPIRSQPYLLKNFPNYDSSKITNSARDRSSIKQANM
T1 chain 2: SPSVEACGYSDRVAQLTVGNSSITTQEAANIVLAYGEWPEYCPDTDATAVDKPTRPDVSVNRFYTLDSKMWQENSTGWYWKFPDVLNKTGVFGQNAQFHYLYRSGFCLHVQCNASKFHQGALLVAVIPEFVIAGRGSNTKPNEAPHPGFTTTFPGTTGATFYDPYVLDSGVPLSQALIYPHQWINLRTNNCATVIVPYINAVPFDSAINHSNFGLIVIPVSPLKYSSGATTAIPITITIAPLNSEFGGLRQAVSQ
T1 chain 3: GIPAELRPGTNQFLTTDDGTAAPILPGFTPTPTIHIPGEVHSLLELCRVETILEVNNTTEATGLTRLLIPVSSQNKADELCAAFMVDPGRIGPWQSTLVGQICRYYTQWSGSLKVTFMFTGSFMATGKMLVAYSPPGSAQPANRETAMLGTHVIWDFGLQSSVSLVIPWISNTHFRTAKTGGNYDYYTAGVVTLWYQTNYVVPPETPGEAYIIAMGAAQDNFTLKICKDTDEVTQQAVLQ
T1 chain 4: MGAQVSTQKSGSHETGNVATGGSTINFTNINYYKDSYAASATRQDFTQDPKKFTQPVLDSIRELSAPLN

Test [2] has as its target T2, CVA10 A-particle (strain CVA10-FJ-01) (Coxsackievirus A10, strain CVA10-FJ-01 …, strain).
T2 chain 1: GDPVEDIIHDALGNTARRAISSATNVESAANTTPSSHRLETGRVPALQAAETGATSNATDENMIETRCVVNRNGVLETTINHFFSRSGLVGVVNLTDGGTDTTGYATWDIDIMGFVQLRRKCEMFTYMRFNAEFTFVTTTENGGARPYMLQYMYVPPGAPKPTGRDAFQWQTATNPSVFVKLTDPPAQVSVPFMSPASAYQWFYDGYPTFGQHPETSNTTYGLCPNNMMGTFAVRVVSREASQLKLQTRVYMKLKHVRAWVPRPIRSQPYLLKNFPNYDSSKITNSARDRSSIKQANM
T2 chain 2: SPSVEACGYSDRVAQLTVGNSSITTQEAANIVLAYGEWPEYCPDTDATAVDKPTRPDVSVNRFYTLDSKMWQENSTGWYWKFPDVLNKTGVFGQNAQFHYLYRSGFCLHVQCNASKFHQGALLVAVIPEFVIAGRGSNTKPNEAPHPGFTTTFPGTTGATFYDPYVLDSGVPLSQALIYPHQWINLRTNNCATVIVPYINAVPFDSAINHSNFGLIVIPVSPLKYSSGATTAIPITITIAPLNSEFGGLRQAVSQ
T2 chain 3: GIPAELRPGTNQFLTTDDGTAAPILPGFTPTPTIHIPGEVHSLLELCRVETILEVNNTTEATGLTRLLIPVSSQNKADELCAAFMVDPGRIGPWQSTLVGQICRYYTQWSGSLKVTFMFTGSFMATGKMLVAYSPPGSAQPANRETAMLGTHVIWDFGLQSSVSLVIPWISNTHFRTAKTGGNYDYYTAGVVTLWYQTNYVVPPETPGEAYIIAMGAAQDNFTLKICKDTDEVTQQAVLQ

The target of test [3] is T3, CVA10 procapsid (strain CVA10-FJ-01) (Coxsackievirus A10, strain CVA10-FJ-01 …, strain).
T3 chain 1: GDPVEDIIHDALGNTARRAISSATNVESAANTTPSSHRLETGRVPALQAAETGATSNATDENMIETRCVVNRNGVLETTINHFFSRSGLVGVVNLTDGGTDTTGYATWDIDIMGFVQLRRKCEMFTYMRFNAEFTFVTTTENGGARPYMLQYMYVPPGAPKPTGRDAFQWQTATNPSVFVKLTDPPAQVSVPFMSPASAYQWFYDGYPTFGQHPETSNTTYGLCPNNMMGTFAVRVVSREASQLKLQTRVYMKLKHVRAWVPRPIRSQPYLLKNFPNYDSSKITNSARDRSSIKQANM
T3 chain 2: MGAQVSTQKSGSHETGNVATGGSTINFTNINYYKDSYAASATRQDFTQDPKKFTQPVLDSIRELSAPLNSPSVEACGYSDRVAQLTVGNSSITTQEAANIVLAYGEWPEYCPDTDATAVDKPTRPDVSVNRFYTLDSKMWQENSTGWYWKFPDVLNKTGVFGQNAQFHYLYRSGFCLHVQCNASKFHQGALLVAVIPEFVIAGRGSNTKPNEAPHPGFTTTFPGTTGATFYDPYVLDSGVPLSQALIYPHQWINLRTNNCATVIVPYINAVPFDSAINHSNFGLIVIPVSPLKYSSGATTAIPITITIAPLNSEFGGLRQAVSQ
T3 chain 3: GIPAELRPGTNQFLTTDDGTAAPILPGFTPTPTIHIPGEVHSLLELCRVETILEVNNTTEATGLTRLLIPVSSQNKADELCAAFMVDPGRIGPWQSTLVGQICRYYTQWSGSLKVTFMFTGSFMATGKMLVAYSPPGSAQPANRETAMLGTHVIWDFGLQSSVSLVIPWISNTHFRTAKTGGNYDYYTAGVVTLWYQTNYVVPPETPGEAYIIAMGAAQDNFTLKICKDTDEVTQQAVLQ

The target of test [4] is T4, CVA10 capsid protein VP3 (strain CVA10-FJ-01) (Coxsackievirus A10, strain CVA10-FJ-01 …, strain).
T4 chain: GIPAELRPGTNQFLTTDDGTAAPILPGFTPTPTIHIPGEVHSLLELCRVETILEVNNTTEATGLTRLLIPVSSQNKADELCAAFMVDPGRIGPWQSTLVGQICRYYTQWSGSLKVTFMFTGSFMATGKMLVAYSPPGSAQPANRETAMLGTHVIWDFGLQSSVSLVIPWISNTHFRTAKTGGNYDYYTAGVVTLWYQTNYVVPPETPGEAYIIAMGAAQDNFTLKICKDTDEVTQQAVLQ

For test [5], the target named is T5, CVA10 capsid protein VP1 (strain CVA10-FJ-01) (Coxsackievirus A10, strain CVA10-FJ-01 …, strain).
T5 chain: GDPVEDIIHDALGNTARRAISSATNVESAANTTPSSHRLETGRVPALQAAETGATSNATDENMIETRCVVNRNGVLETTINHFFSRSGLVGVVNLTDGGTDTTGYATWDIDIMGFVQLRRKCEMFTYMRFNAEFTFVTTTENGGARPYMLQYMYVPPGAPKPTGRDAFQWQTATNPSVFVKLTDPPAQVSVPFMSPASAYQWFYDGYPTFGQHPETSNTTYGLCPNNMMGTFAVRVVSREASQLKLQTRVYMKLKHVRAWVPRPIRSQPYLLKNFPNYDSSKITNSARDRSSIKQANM

Test [6] concerns the target T6, CVA10 capsid protein VP2 (strain CVA10-FJ-01) (Coxsackievirus A10, strain CVA10-FJ-01 …, strain).
T6 chain: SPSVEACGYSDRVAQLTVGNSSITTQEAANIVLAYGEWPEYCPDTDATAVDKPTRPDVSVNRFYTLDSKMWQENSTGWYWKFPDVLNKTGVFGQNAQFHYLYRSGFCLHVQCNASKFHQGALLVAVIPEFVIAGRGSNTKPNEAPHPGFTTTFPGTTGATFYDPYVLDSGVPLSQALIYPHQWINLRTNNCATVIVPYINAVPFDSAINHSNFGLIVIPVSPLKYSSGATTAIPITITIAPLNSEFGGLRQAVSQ

As a reminder, the stoichiometry N is a count of units in the complex or per binding partner.

B1: Fab 2G8 (Fab, V domains shown)
VH: EVQLQQSGPDLVKTGASVRVSCRASGYSFTSYYIHWVRLNHGKSLEWIGYINCYNGDITYNQKFKGKASFTLDTSSSTAYMEFNRLTSEDSAVYYCTRERYGTPHYHFDVWGAGP
VL: DVLMTQTPLSLPVSLGHQASISCRSSQSIVHSNGNTYLEWYLQKPGQSPKLLIYTVSNRFSGVPDRFSGSGSGTDFTLRITSVEAEDLGVYYCFQGSHIPYTFGGGTKLEIK
B1: the “stoichiometry N” value in test [1], in test [2] and in test [3] was 60 copies per particle each time. The binding result in test [4], in test [5] and in test [6] was “binds” in each case.
